Source: patent US20230303685A1

Assays:
[1] = target: human SIRPα on hSIRPα-expressing cells (human) (UniProt P78324); experiment: flow cytometry, stably transfected CHO cells, antibody titrated, labelled anti-rat or anti-mouse IgG, MFI
[2] = target: human SIRPα on hSIRPα-expressing cells (human) (UniProt P78324); experiment: flow cytometry, stably transfected CHO cells, antibody titrated, labelled anti-human IgG, MFI

EC50 (read off the curve) [1] | EC50 (read off the curve) [2] | Binder
0.1 µg/mL |  | Antibody 11 (antibody, V domains shown) VH: EVQLVESGGGLVQPGGSLRLSCAASGFTFSSYWMHWVRQAPGKGLVWVSRIHNDGSRTSYADSVKGRFTISRDNAKNTLYLQMSSLRAEDTAVYYCTRDPPPYDILTGYPFDYWGQGTLVTVSS VL: DIQMTQSPSSVSASVGDRVTITCRASQDISSWLAWFQQKPGKAPKLLIYGASSLQSGVPSRFSGSGSGTDFTLTISSLQPEDFATYYCQEANSFPYTFGQGTKLEIK
 | 0.2 µg/mL | Antibody 28 (antibody, V domains shown) VH: QVQLQESGPGLVKPSGTLSLTCAVSGGSISSSNWWSWVRQPPGKGLEWIGEIYHSGSTNYNPSLKSRVTISVDKSKNQFSLKLSSVTAADTAVYYCARRGIWFGVGPWGQGTLVTVSS VL: DIVMTQSPLSLPVTPGEPASISCRSSQSLLHGNGFNYLDWYLQKPGQSPQLLIYLGSNRASGVPDRFTGSGSGTDFTLKISRVEAEDVGVYYCMQGLQTPRTFGQGTKVEIK
1 µg/mL |  | Antibody 4 (antibody, V domains shown) VH: QVQLQESGPGLLKPSETLSLTCAVSDYSISSGYYWGWIRQPPGKGLEWIGSIYHSGNTYYNPSLKSRVTILVDTSKNQFSLKLSSVTAADTAVYYCARDKCSTTTCSFDYWGQGTLVTVSS VL: DIQMTQSPSSLSASVGDRVTITCQASQDFSNYLNWYQQKPGKAPKLLIYAASNLETGVPSRFSGSGSGTDFTFTISSLQPEDIAVYYCQQYDNLPYTFGQGTKLEIK
